According to PMC5025888 (Scientific Reports, 2016):

Molecular target: NS1 of rgPR8-NS1-WT virus (Influenza A virus A/Puerto …, UniProt P03496)
Test: Western blot
Settings: one partner purified

Sequence of NS1 of rgPR8-NS1-WT virus (P03496 whole entry): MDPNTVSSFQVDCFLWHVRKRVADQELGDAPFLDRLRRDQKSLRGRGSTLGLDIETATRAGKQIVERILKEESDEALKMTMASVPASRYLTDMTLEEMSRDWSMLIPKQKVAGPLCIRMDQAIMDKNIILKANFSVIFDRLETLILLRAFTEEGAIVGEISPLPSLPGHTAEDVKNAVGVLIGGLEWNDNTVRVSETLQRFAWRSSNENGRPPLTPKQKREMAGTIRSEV

B1: monoclonal antibody 2H6 (antibody, V domains shown)
VH: DVKLVESGGGLVNLGGSLKLSCAASGFTFSRYYMSWVRQTPEKRLELVAAINHNSGRTYYSDTVKGRFTISRDNAKNTLYLQMSSLKSEDTALYYCTRHPLIYHGNYLDYWGQGTTLTVSS
VL: DIVLTQSPASLAVSLGQRATISCKASQSVDYDGDSYVTWYQQKPGQPPKLLIYVASNLESGIPARFSGSGSGTDFTLNIHPVEEEDAATYYCQQSNEDPWTFGGGTKLEIK
  binding result: binds
